We go through 32 sequences from the Immune Epitope Database (IEDB).

One assay has as its target HLA-A*01:01. The assay can be described thus: IEDB peptide-MHC binding, purified MHC/competitive/radioactivity; filed as Kd, often an IC50 or EC50 that approximates it; ≥ and ≤ were set here for values at or beyond the usual limits of such assays.
In the next assay the target is HLA-A*23:01. The description is as above.
Another assay concerns the target HLA-A*26:01. The assay is described as above.
The target of a further assay is HLA-A*29:02. Described as above.
In another assay the target is HLA-A*30:02. The description is as above.
The next assay has as its target HLA-B*44:02. The description is as above.
Assay [1] has as its target HLA-B*40:01. Kind of assay: IEDB peptide-MHC binding, purified MHC/direct/fluorescence; filed as Kd, often an IC50 or EC50 that approximates it; ≥ and ≤ were set here for values at or beyond the usual limits of such assays.
In assay [2] the target is HLA-B*40:01. The assay can be described thus: IEDB peptide-MHC binding, purified MHC/competitive/radioactivity; filed as Kd, often an IC50 or EC50 that approximates it; ≥ and ≤ were set here for values at or beyond the usual limits of such assays.
A further assay concerns the target HLA-B*44:03. The assay is described as above.
Another assay concerns the target HLA-A*24:02. The description is as above.
Another assay addresses HLA-A*02:01. Kind of assay: IEDB peptide-MHC binding, purified MHC/direct/fluorescence; filed as Kd, often an IC50 or EC50 that approximates it; ≥ and ≤ were set here for values at or beyond the usual limits of such assays. The settings on record: source organism: Pseudomonas aeruginosa.
The next assay deals with HLA-A*11:01. The description is as above. The settings on record: source organism: Pseudomonas aeruginosa.
The target of another assay is HLA-A*69:01. Described as above.
For another assay, the target named is HLA-B*07:02. Described as above. The settings on record: source organism: Homo sapiens.
A further assay concerns the target HLA-B*58:01. The assay is described as above. The settings on record: source organism: Homo sapiens.
Where [3] appears, read: source organism: SARS coronavirus Tor2.
The mark [4] stands for this setting: source organism: Dengue virus 4 Philippines/H241/1956.
[5] abbreviates: source organism: Dengue virus 3 Martinique/1243/1999.
[6] abbreviates: source organism: Dengue virus 1 Brazil/97-11/1997.
Setting [7] is: source organism: Dengue virus 2 Jamaica/1409/1983.
[8] abbreviates: source organism: Mammarenavirus guanaritoense.
Where [9] appears, read: source organism: Mammarenavirus brazilense.
Where [10] appears, read: source organism: Mammarenavirus whitewaterense.

The Kd is a measure of binding affinity in units of concentration.

On to LWLLWPVTL, for which the Kd with HLA-A*01:01 (setting [3]) was at least 78100 nM; in the assay with HLA-A*23:01 (setting [3]), 7.42 nM; with HLA-A*26:01 (setting [3]) it was at least 77900 nM; with HLA-A*29:02 (setting [3]), 1840 nM; with HLA-A*30:02 (setting [3]), 5030 nM.
As for EEKLSVVLF, the Kd with HLA-B*44:02 (source organism: Homo sapiens) was found to be 143 nM.
As to TEEAFKIGL, in the assay with HLA-B*40:01 [1] (source organism: Mammarenavirus juninense), the Kd worked out at 0.3 nM.
Turning to AEYTNSVTNI, the Kd was 158 nM in the assay with HLA-B*40:01 [2] (setting [4]), 280 nM with HLA-B*44:02 (setting [4]) and 51.6 nM with HLA-B*44:03 (setting [4]).
As for AELEEGVYR, the Kd with HLA-B*44:03 (setting [5]) amounted to 9270 nM.
FDEISMATNY: the Kd with HLA-A*01:01 (setting [3]) is 13000 nM; in the assay with HLA-A*23:01 (setting [3]), at least 70000 nM; with HLA-A*24:02 (setting [3]), at least 70300 nM; with HLA-A*26:01 (setting [3]), 699 nM; with HLA-A*29:02 (setting [3]) it was 18.4 nM; in the assay with HLA-A*30:02 (setting [3]), 4100 nM.
LEELGDGLAM: the Kd in the assay with HLA-B*40:01 [2] (setting [6]) was 51.2 nM.
On to MTGTLAVFLL, for which, in the assay with HLA-A*01:01 (setting [6]), the dissociation constant Kd is at least 34600 nM.
On to NKAWMVHRQW, for which the dissociation constant Kd with HLA-B*44:02 (setting [5]) was 12600 nM.
As to FTNMEAQLV, the Kd with HLA-A*01:01 (source organism: Dengue virus 3 Sri Lanka/1266/2000) came to 403 nM.
Regarding KEIGRMLNI, the Kd came out at 216 nM with HLA-B*40:01 [2] (setting [7]), 418 nM in the assay with HLA-B*44:02 (setting [7]) and 417 nM with HLA-B*44:03 (setting [7]).
As for KEGDQYIYM, in the assay with HLA-B*40:01 [2] (source organism: Dengue virus 1 Nauru/West Pac/1974), the dissociation constant (Kd) came to 45.1 nM.
With VWKSGILQLF, the results for the dissociation constant Kd with HLA-A*23:01 (setting [8]), with HLA-A*24:02 (setting [8]) and with HLA-A*29:02 (setting [8]) were 16.5 nM, 62.6 nM and 2560 nM, respectively.
For the sequence ASDRMGMGV, the Kd in the assay with HLA-A*01:01 (setting [5]) worked out at 1370 nM.
As for MFKTKGRYNL, the equilibrium dissociation constant (Kd) came out at 2070 nM with HLA-A*23:01 (setting [9]), 7170 nM in the assay with HLA-A*24:02 (setting [9]) and 68.9 nM in the assay with HLA-A*29:02 (setting [9]).
With GVFKVWHPI, the Kd in the assay with HLA-A*02:01 was 5720 nM; with HLA-A*11:01 it was 6490 nM; with HLA-A*69:01 (source organism: Pseudomonas aeruginosa), 1340 nM.
With LTNDNTSRY, the Kd with HLA-A*01:01 (setting [3]) was 1.59 nM; with HLA-A*23:01 (setting [3]) it was at least 77800 nM; with HLA-A*24:02 (setting [3]) it was at least 77600 nM; with HLA-A*26:01 (setting [3]) it was 6.48 nM; with HLA-A*29:02 (setting [3]), 31.6 nM; with HLA-A*30:02 (setting [3]), 8.9 nM.
Turning to EPEPHILLF, the Kd in the assay with HLA-A*69:01 (source organism: Homo sapiens) worked out at 7050 nM; with HLA-B*07:02 it was 5470 nM.
Turning to TENILTVLL, the Kd with HLA-B*40:01 [2] (setting [5]) came to 12.2 nM; with HLA-B*44:02 (setting [5]), 0.409 nM; with HLA-B*44:03 (setting [5]) it was 351 nM.
Take VEMGEAAGI: the Kd with HLA-B*40:01 [2] (setting [7]) turned out to be 268 nM; in the assay with HLA-B*44:02 (setting [7]), 26.5 nM; in the assay with HLA-B*44:03 (setting [7]), 206 nM.
As for YQPESQKFI, the Kd with HLA-A*23:01 (setting [10]) was 7210 nM; with HLA-A*24:02 (setting [10]), 8480 nM; in the assay with HLA-A*29:02 (setting [10]), 3390 nM.
With SLDRKEFEEY, the dissociation constant Kd with HLA-A*01:01 (setting [4]) was 1050 nM.
Same read-out and setting: in the case of STDGPERVIL it was 18700 nM.
Consider RPAKSMDSL, for which the Kd with HLA-A*69:01 (source organism: Homo sapiens) was 5060 nM; with HLA-B*07:02, 146 nM; with HLA-B*58:01, 18800 nM.
As to NRKGKVIGLY, in the assay with HLA-A*30:02 (setting [4]), the Kd was 109 nM.
For the sequence SEVSNVQRL, the Kd with HLA-B*40:01 [1] (source organism: Mammarenavirus lassaense) is 70.9 nM.
Take SLEKAANVQW: the Kd in the assay with HLA-B*44:02 (setting [4]) was found to be 10700 nM.
Regarding GYKETPFLT, the dissociation constant (Kd) is at least 65200 nM with HLA-A*01:01 (setting [9]), at least 77900 nM in the assay with HLA-A*26:01 (setting [9]) and at least 76900 nM in the assay with HLA-A*30:02 (setting [9]).
With MEKYQLAVTI, in the assay with HLA-B*44:02 (setting [7]), the Kd is 331 nM.
For the sequence AALLLLVAHY, the Kd with HLA-A*30:02 (setting [7]) came to 10500 nM.
For the sequence KEENMVKSL, in the assay with HLA-B*40:01 [2] (setting [5]), the Kd was found to be 156 nM.
Turning to KYILIQAGF, the Kd with HLA-A*23:01 (setting [8]) was determined as 1.77 nM; with HLA-A*24:02 (setting [8]), 11.9 nM; with HLA-A*29:02 (setting [8]), 3740 nM.
